{"source": "IntAct's records for PubMed 14528310", "target": "Homer1, Q9Z214-1", "sequence (Q9Z214 whole entry)": "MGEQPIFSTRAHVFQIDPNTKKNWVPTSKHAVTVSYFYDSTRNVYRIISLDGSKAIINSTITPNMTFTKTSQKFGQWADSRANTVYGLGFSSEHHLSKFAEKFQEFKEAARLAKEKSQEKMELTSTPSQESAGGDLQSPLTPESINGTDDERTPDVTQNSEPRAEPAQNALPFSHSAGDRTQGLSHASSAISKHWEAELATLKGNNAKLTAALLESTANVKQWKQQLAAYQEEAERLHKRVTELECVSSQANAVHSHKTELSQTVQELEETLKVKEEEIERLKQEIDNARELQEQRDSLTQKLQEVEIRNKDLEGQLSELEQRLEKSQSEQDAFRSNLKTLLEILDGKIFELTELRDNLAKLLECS"}
{"substance": "Arf-GAP with GTPase, ANK repeat and PH domain-containing protein 2 (Rattus norvegicus (Rat)), Q8CGU4 P187L", "values": [{"measurement": "effect of a mutation on the interaction", "result": "disrupting interaction"}]}
